Consider one molecule from US20070178531A1 (BIOCHECK, published 2007).

Residue numbers refer to the chain shown, from its start.

Experiment [1] has as its target T1, Mouse Id1: Histidine (mouse, UniProt P20067-2 1-148, limits assumed).
T1 construct: Fusion protein made in E. coli from vector pGW07; also called m-Id1-His; not shown: His tag
T1 sequence (looked up): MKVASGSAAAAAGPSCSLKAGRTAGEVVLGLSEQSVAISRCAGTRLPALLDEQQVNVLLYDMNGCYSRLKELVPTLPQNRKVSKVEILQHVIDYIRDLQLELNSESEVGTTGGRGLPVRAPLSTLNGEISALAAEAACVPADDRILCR
In words: ELISA, positive control (stated to be BCH-4/6-1) 0.50 µg/ml. The protocol: (§1) 1. Dispense 100 μL of antibody diluent, diluted rabbit monoclonal human Id3, and mouse/human Id3 hybridoma supernatants into appropriate wells. […] 2. Incubate at room temperature with mechanical shaking at 750 rpm for 90 minutes. [0165] 3. Remove the incubation mixture by flicking plate content into an appropriate waste container followed by rinsing the wells 5 times with distilled water. [0166] 4. Strike the wells sharply onto absorbent paper or paper towels to remove all residual water droplets. [0167] 5. Dispense 100 μL of 1:50,000 Goat Anti-Rabbit IgG-HRP Conjugate Reagent into each well. Gently mix for 5 seconds. [0168] 6. Incubate at room temperature with mechanical shaking at 750 rpm for 90 minutes. [0169] 7. Repeat procedures 3 and 4. [0170] 8. Dispense 100 μL of TMB Reagent into each well. Gently mix for 5 seconds. [0171] 9. Incubate at room temperature with mechanical shaking at 750 rpm for 20 minutes. […] 10. Add 100 μL of Stop Solution (1N HCl) into each well. [0173] 11. Gently mix for 10 seconds to ensure a complete mixing. [0174] 12. Read optical density at A450 nm.
(§2) The materials and method are the same as those described in Example 9 except the following.
(§3) Rabbit monoclonal anti-mouse Id3, hybridoma supernatant was used as the test antibody. Protein G purified, rabbit monoclonal anti-mouse/human Id3 antibody, BCH-4/6-1, 0.92 mg/ml in 0.25% BSA was used as positive controls.
On the technique in general: An ELISA detects its analyte on a solid surface through an enzyme-linked reagent.

The target in experiment [2] is T2, Mouse Id3: Histidine (mouse, UniProt P41133 1-119).
T2 construct: Fusion protein made in E. coli from vector pGW07; also called m-Id3: His; Mouse Id3 (coated wells); not shown: His tag
T2 sequence: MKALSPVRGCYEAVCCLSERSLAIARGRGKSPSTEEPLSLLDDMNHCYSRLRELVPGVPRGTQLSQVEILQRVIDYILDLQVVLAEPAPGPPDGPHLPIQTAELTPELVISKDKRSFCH
The description is as above. The protocol:
as §1, §2, §3

Experiment [3] addresses T3, Mouse Id2: Histidine (mouse, UniProt P41136 1-134, limits assumed).
T3 construct: Fusion protein made in E. coli from vector pGW07; also called m-Id2: His; not shown: His tag
T3 sequence (looked up): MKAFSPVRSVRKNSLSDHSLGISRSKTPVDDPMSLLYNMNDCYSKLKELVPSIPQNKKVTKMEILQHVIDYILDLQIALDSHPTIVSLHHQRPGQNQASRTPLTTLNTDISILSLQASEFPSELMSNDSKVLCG
Described as above. The protocol:
as §1, §2, §3

Experiment [4] concerns the target T4, Human Id1: Histidine (human, UniProt P41134 1-155, limits assumed).
T4 construct: Fusion protein made in E. coli from vector pGW07; also called h-Id1: his; not shown: His tag
T4 sequence (looked up): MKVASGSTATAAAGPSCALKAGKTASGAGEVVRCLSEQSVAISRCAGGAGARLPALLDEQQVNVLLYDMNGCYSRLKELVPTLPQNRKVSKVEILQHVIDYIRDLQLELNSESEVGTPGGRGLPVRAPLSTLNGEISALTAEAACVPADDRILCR
The experiment is described as above. The protocol: as §1, §2, §3

Experiment [5] addresses T5, Human Id3: Histidine (human, UniProt Q02535 1-119 at identity 1.00)).
T5 construct: Fusion protein made in E. coli from vector pGW07; also called h-Id3: His; Human Id3 (coated wells); not shown: His tag
T5 chain: T2 sequence with S31G, S33A, T34A, T105A, K112N
The experiment is described as above. The protocol: as §1, §2, §3

For experiment [6], the target named is T6, Human Id2: Histidine (human, UniProt Q02363 1-134, limits assumed).
T6 construct: Fusion protein made in E. coli from vector pGW07; also called h-Id2: His; not shown: His tag
T6 sequence (looked up): T3 sequence (looked up) with T60S, V131A
The description is as above. The protocol: as §1, §2, §3

Experiment [7] has as its target T1, Mouse Id1: Histidine. Briefly: ELISA, Ab 0.100 µg/ml.
Experiment [8] addresses T2, Mouse Id3: Histidine. Briefly: ELISA, Ab 0.100 µg/ml.
The target of experiment [9] is T3, Mouse Id2: Histidine. In words: ELISA, Ab 0.100 µg/ml.
In experiment [10] the target is T4, Human Id1: Histidine. Briefly: ELISA, Ab 0.100 µg/ml.
Experiment [11] has as its target T5, Human Id3: Histidine. Briefly: ELISA, Ab 0.100 µg/ml.
For experiment [12], the target named is T6, Human Id2: Histidine. In words: ELISA, Ab 0.100 µg/ml.
For experiment [13], the target named is T4, Human Id1: Histidine. In words: ELISA, Ab 0.025 µg/ml. The protocol:
as §1
(§4) Cross-reactivity of rabbit monoclonal anti-mouse/human Id3 (clone #6-1) and commercial rabbit polyclonal antibody (Santa Cruz Biotechnology) were determined according to the procedures of Example 9.

Experiment [14] has as its target T6, Human Id2: Histidine. Briefly: ELISA, Ab 0.025 µg/ml. The protocol: as §1, §4

B1: rabbit monoclonal anti-mouse/human Id3, clone #BCH-4/#6-1 (antibody, V domains shown)
VH: QSVEESGGRLVTPGTPLTLTCTASGFSLSNVYIHWVRQAPGKGLEWIGYISDGDTARYATWAKGRFTISKTSSTTVNLKMTSLTTEDTATYFCARQGFNIWGPGTLVTVSL
VL: AVLTQTPSPVSAAVGGTVSISCQSSQSVWNNNWLSWFQQKPGQPPKLLIYETSKLESGVPSRFKGSGSGTQFTLTISDVQCDDAATYYCLGGYWTTSDNNVFGGGTEVVVK
notes: Rabbit IgG from a rabbit hybridoma; also called m/h Id3 MoAb 6-1
Turning to B1, the A450 was found to be 2.2 A450 in the experiment with Mouse Id1: Histidine [1]; 3.18 A450 with Mouse Id3: Histidine [2]; 3.1 A450 with Mouse Id2: Histidine [3]; 2.13 A450 with Human Id1: Histidine [4]; 2.83 A450 with Human Id3: Histidine [5]; 3.23 A450 with Human Id2: Histidine [6]. Also, the A450 with Mouse Id1: Histidine [7] was determined as 0.085 A450; with Mouse Id3: Histidine [8] it was 2.42 A450; with Mouse Id2: Histidine [9] it was 0.067 A450; in the experiment with Human Id1: Histidine [10], 0.083 A450; with Human Id3: Histidine [11] it was 1.98 A450; with Human Id2: Histidine [12] it was 0.058 A450. For the same molecule, the figures for the A450 in the experiment with Human Id1: Histidine [13] and with Human Id2: Histidine [14] were 0.073 A450 and 0.088 A450, respectively.
